Laboratory results: the nanobody polyreactivity screen of Harvey et al. (2022)

Assay: yeast display, Sf9 membrane polyspecificity reagent, FACS + sequencing; frameworks hold sequencing errors
Outline: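 Using colony PCR, genes from sorted yeast display clones were amplified, then sequenced on MiSeq at 2 × 250 and filtered by CDR length. The clones had been stained with 10% biotinylated, detergent-solubilized Sf9 membrane reagent for 1 hour at 4 °C and sorted by FACS into low and high (top ~1%) gates on anti-HA and streptavidin fluorescence. Polyreactivity labels come from the gate of origin.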

| Sequence | polyreactivity (PSR sort gate) |
| --- | --- |
| QFQLVESGGGLVQAGGSLRLSCAASGFIFSNYAMGWYRQAPGKERELVASISWGGGSTYYADSVKGRFTISRDNAKNTVYLQMNSLKPEDTAVYYCATVRSLYSYDYWGQGTQVTVSS | high polyreactivity |
| QVQLVESGGGLVQAGGSLRLSCAASGSIFGPYAMGGYRQAPGKERELVAAISSGGSTNYADSVKGRFTISRDNAKNTVYLQMNSLKPEDTAVYYCAADRKYFYLWLDQEHRYYWGQGTQVTVSS | low polyreactivity |
| QVQLVESGGGLVQAGVSLRLRCASSGSTFAYNAMGWYRQAPGKESELVAAISTSGGYTYYADSVKGRFTISRDNAKNTVYLQMNSLKPEDTAVYYCYAVGRSKHGYSRSYYWGQGTQVTVSS | high polyreactivity |
| QVQLVESGGGLVQAGGSLRLSCAASGSTLGVYAMGWYRQAPGTERELVAAISSGGSTTYADSVKGRFTISRDNEKNTVYLQMNSLKPEDTAVYYCAADRYEGYVTWYWWGAYNYDYWGQGTQVTVSS | high polyreactivity |
| QVQLVESGGGVVQAGGSLRISGAASGSIFPFNAMVWYRQAPGKERELVAAIRRSGGSTYYADSVQGRFTISRYNAKNTVDLQMNSLKPEATAVYYCATDPEWPLPAYYYWGQGTQVTVSS | low polyreactivity |
| QVQLVESGGGLVQAGGSLRLSCAASGSTFYANGMGRYRQAPGKERELDAAISWSGGSTYYADSVKGRFTISRDNAKNTVYLQMNSLKPEDTAVYYCAAAYRSFINGRWYDYWGQGTQVTVSS | low polyreactivity |
| QFQIVDSLEGLVQEAGTLRLSSAASGSIFYRYAKGGYRQAPRKERELVATITSSGGRTYYADSVKGRFTISRDNAKNTVYLQMNSLKPEDTAVNYCKPRDWGRTRGGGYPWLYRYDYWGQGTQVTVSS | low polyreactivity |
| QVQLVESGGGLVQAGGSLRLSCAASGFTFVPYAMGWYRQAPGKERELVAAISSTGGSTYYADSVKGRFTISRDNAKNTVYLQMNSLKPEDTAVYYCAAKITRRYYPGYLFDSWGQGTQVTVSS | high polyreactivity |
| QVQLVESGGCLVQAGGSLRLSCAASGRTFYTYAIGWYRQAPGQERELVAGIRTGGGSTYYADSVKGRFTISRDNAKNTVYLQMNSLKPEDTAVYYCAADTYDGYDYWGQGTQVTVSS | low polyreactivity |
| QVHLVESGGGLVQAGGSLRLSCAASGFTFRTYAMGWYRQAPGKERELVAAITRNGGTYYADSVKGRFTISRDNAKNTVNLQMNSLKPEDTAVYYCATDPAYWGDQPPEDDYWGQGTQVTVSS | low polyreactivity |
| QVQLVESGGGLVQAGGSLRLSCAASGSTLSVYVMGWYSQAPGKERELVAAITRGGSTNYADSVKGRFTISRDNAKNTVYLQMISLKPEDTAVYYCAARAFVYYHHGEGSRSGRYYYWGQGTQVTVSS | high polyreactivity |
| QVQLVESGGGLVQAGGSLRLSCAASGFIIGSYTMGWYRQAPGKERELVASITKRGGSTYYADSVKGRFTISRDNAKNTVYFQMNSLKPEDTAVYYCAATYWFSHRSRYDYWGQGTQVTVSS | high polyreactivity |
| QVQLVESGGGLVQAGCSLRLSCASSGRTFSEYAMGWYRQAPGKERELVAAISKGGGSTYYADSVKGRCTISRDNAKNTVYLQMNSLKPEDNAVYYCAKSSHAREYYYWGQGTQVTVSS | low polyreactivity |
| QVQLVESGGGLVQAGGSHRLSCAASGRIFDKNAMGWYRQAPGKERELVAAINRSGGRTYYADSVKGRFTISRDNAKNTVYLQMNSLKPEDTAVYYCAADTQGSRYDYWGQGTQVTVSS | high polyreactivity |
| QVQLVESGGGLVQAGGSLRLSCAASGGTFQRYVMGWYRQAPGKERELVAAISRSGSTYADSVKGRFTISRDNAKNTVYLQMKSLKPEDTAVYYCNVVSYYRYYLHGYDYWGQGTQVTVSS | high polyreactivity |
| QVQLVESGGGLVQAGGSLRLSCAASGSIFEVYAMGWYRQAPGKDRELVAAITSSDITYYADSVKGRFTISRDNAKNTVYLQMNSLKPEDRAVFYCNAEPPYRVKRSDYWGQGTQVTVSS | low polyreactivity |
| QVQLVESAGGLVQAGGSLRLSCAASGLIIYYYAMGWYRPAPGKERELVAAISGSSGASTYYADSVKGRFTISRDNAKNTVYLQMNSLKPEDTAVYYCNADWARLWIRSTEFDYWGQGTQVTVSS | low polyreactivity |
| QVQLVESGGGLVQAGGSLRLSCAASGSTFTANAMGWSRQAPGKERELVAAISRSGGSTYYADSVKWRFTISRDNAKNTVYLQMNSLKPEDTAVYYCAAESPLFSPPDGEDYWGQGTQVTVSS | low polyreactivity |
| QVQLVESGGGLVQAGGSLRLSCAASGFIFRYYDMGWYRQAPGKERELVAAISWRGGRTYYADSVKGRFTISRDNAKNTVYLQMNSLKPEDTAVYYCAAGFSLWTYPKPYGEDYWGQGTQVTVSS | high polyreactivity |
| QVQLVESGGGLVQAGGSLRLSCAASGRIFDWYAMGWYRQAPGKERELVAAISTSGANTYYADSVKGRFTISRDNAKNTVYLQMNSLKPEDTAVYYCATDPYQPYEGDYWGQGSQVTVSS | low polyreactivity |
| QVQLQESGGGLLQAGGSLRLSCAASGIIFDNPNKGWYRQAPGKERDLVATINSGATTNYADSVKGRFTISRDNAKNTVYLQMNSLIPVDTAVYYCAVDLSPTYFYYWGQGTQVTVSS | high polyreactivity |
| QVQLEESAGGIVQAGGSLRFSCAASGSTISAYDIGCYRQEPGKEWELVAAITWIGGNTYYADSVKGRFTISRDTAKNTVYLQMNSLKPEDTEFYYCAAEEVPYDRDMDYWGQGTQVTVSS | low polyreactivity |

| Sequence | polyreactivity (PSR sort gate) |
| --- | --- |
| QVQLVESGGGLVQAGGSLRLSCDASGRIFSRYAIGWYRQAPGKERELVAAITQSGTSTYYADSVKGRFTISRDNAKNTVYLQMNSLNPEDTAVYYCNAYRQYRYDYWGQGTQVTVSS | low polyreactivity |
| QVQLVESGGGLVQAGGSLRLSCAASGYTFNGYAMGWYRQAPGKERELVAAISWSGGSTYYADSVKGRFTISRDNAKNTFYLQMNSLKPEDTAVYYCARRGPSGVYNDGGYGLDDDYWGQGTQVTVSS | low polyreactivity |
| QVQLVESGGGLVQAGGSLRLICAASGSTFNYNAMGSSRQAPGKERELVAAISQTTSRTYYADSVKGRFTISRDNAKNTVYLQMNSLKPEDTAVYYCATKRWTRDRQRPRTQYYLFYYWGQGTQVTVSS | high polyreactivity |
| QVQLVESGVGLVQAGGSLRLSCAASGRIFGYYTMGWYRQAPGKERELVADSSGGNTSYADSVKGRFTISRDNAKNTVYLQMNSLKPEDTAGYYCAKDLPGAWRGDDYWGQGTQVTVSS | low polyreactivity |
| QDQLVESGGVLVQAGGSLRLSCAASGSIFFRNAMGWYRQAPGKERELVAGIRWSGGSTYYADSVKARFTISRDNAKNTVYLQMNSLKPEDSAVYYCAASRYRPARVQYSYDYWGQGTQVTVSS | high polyreactivity |
| QVQLVESGGGLVQAGGSLRLSCAASGRIFDFYGMGWYTQAPGKERELVAAISRRSGSTYYADSVKGRFTISRDNAKNTDYLQMNSLKPEDTAVYYCAAEPSSYRYDYWGQGTQGTVSS | high polyreactivity |
| QVQLEESGGGLVQAGGSLRLSCAASGSTFVEYAMGWYRQAPGKERELVAAITASGGSTYYADSVKGRFTISRDNAKNTVYLQMNSLKPEDTAVYYCAVTTRSRGFRDIDYWGQGTQVTVSS | low polyreactivity |
| QVQLVESGGGLVQAGGSLRLSCAASGSTFRSYAMGWYIQAPGKERELVARISYRTGSTYYADSVKGRFTISRDNAKNTVYLQMNSLKPEDTAVYYCATRGSYVGGLYDYWGQGTQVTVSS | high polyreactivity |
| QVQLVESGGGLVQAGGSLRLSCAASGAIFVFYVMGWYRQAPGKERELVAAISNSGSSTYYADSVKGRFTISRDNAKNTVYLQMNSLKPEDTAVYYCAAEYKIPVGFDYWGQGTQVTVSS | low polyreactivity |
| QVQLVESGGGLVQAGGSLRLSCAASGLIFYKNTMGWYRQAPGKERELVATITGRGGRTYYADSVKGRFTISRDIAKNSVYFQMNSLKPEDTAVYYCAARNQGRGYYWGQGTQVTVSS | high polyreactivity |
| QVQLVESGGGLVQAGGSLRLSCAASGRIFNSNAMGWYRQAPGKERELAAAISKRGGSTFYADSVKGRFTISRDNAKNTVYLQMNSLKPEDTAVYYCNARRLSTGFERYDYWGQGTQVTVSS | high polyreactivity |
| QVQLVESGGGLVQAGGSLRFICAASGRIFRRYLMGWYRQAPGKERELVARFRIRDSNTYYADSVKGRFTISRDNAKNTVYLQMNSLKPEDTAVYNCAVVANYVYSKYDYWGQGTQVTVSS | high polyreactivity |
| QVQLVESGGGLVQAGGSLRLSSAASGRTFQDNAMGSYRQAPGKERELVAAISWRGGSTNYADSVKGRFTISRDNAKNTVYLQMNSLIPEDTAVYYCNRDPRKYGKLDYWGQGTQVTVSS | low polyreactivity |
| QVQLVESGGGLVQAGGSLRLSCAASGFTFNWYTMGWYRQAPGKERELVAAIRGSGSRTYYADSVKGRFTISRDNAKNTVYLQMNSLKPEDTAVYYCATDYGLYSTWGRYYRYRYDYWGQGTQVTVSS | high polyreactivity |
| QVQLVESGGGLVQAGGSLRLSCAASGGIFSGNDMGWYRHAPGKESEFVAAISWSGGSTYYADSVKGRFTISRDNAKNTVYLQMNSLKPEDTAVYYCAAAHYFLGPQGASFYYWGQGTQVTVSS | low polyreactivity |
| QVQLVESGGGLVQAGGSLRLSCAASGRTFGFYDMGWYRQAPGKERELVAAIRGSIGYTYYADSVKGRITISRDNAKNTVYLQMTSLKPEDTAVYYCAKAIRYPAAKFYWGQGSQVTVSS | high polyreactivity |
| QVQLVESGGGLVQAGGSLRLSCAASGFTFRKYAMGWYRQAPGKERELVAANTSGGGSTYYADSVKGRFTISRDNAKNTVYLQMNSLKPEDTAVYYCAAKRSGGQGQGYGYWGQGTQVTVSS | high polyreactivity |
| QVQLVESGGGLVQAGGSLRLSCAASGSTFYPYAMGWYRQAPGKERELVAVISWRGGSTYYADSVKGRFTISRDNAKNTVYLQMNSLKPEDTAVYYCGASGYRGYEYWGQGTQVTVSS | high polyreactivity |
| QVQLVESGGGLVQAGGGLRLSCAASGRTFYIYAMGWYRQAPGKERELVAAISWRGGSTYYADSVKGRFTISRDNAKNTGYLQMNSLKPEDTAVYYCAKVYARTVGWFNYWGQGTQVTVSS | high polyreactivity |
| QVQLVEYGGGLVQAGGSLRLSCAASGRIFNYYAMGWYRQAPGKEREFVAAITRSGGRTYYADSVKGRFTISRDNAKNTVYLQMNILKPEDTAVYYCAAPYGTYAYDYSGQGTQVTVSS | high polyreactivity |
| QVQLVESGGGLVQAGGSLRLSCAASGSTFFYNAMGWYRQAPGKERESTNYADSVKGRFTISRDNAKNTVYLQMNSLKPEDTAVYYSAKDRSYYRKFSSYRLHDYWGHGTQVTVSS | low polyreactivity |
